Results published in article PMC1075921 (Nucleic Acids Research, 2005).

B1: hRPA70_(1–168) Y118A mutant (domain or fragment)
chain: MVGQLSEGAIAAIMQKGDTNIKPILQVINIRPITTGNSPPRYRLLMSDGLNTLSSFMLATQLNPLVEEEQLSSNCVCQIHRFIVNTLKDGRRVVILMELEVLKSAEAVGVKIGNPVPANEGLGQPQVAPPAPAASPAASSRPQPQNGSSGMGSTVSKAYGASKTFGKA
B2: hRPA70_(1–168) R41E mutant (domain or fragment)
chain: MVGQLSEGAIAAIMQKGDTNIKPILQVINIRPITTGNSPPEYRLLMSDGLNTLSSFMLATQLNPLVEEEQLSSNCVCQIHRFIVNTLKDGRRVVILMELEVLKSAEAVGVKIGNPVPYNEGLGQPQVAPPAPAASPAASSRPQPQNGSSGMGSTVSKAYGASKTFGKA

Target: transactivation domain of human p53 (residues 1–73) (human, UniProt P04637 1-73, R72)
Assay: NMR titration

Binder | mean intensity ratio (free/with partner) of p53TAD residues 42–56 | intensity ratio (free/with partner) of all p53TAD residues except I50-F54 | mean intensity ratio (free/with partner) of p53TAD residues I50-F54
B1 | 35 ± 34 |  | 
B2 |  | < 2 | 3.3 ± 1.7
